Assay results reported in article PMC6606445 (Nature structural & molecular biology, 2018).

Tests used:
[1] = molecular target: SYCP1 αN-end (101-206) (human) (UniProt Q15431); experiment: crystal structure
[2] = molecular target: truncated SYCP1 αN-end (101-175) (human) (UniProt Q15431); experiment: crystal structure
RecE-αN-tetramer = RecE-αN-tetramer (UniProt Q15431); experiment: SEC-MALS
SEC-MALS [3] = molecular target: the molecule itself; experiment: SEC-MALS
crystal structure = molecular target: the molecule itself; experiment: crystal structure
SEC-MALS [4] = molecular target: the molecule itself; experiment: SEC-MALS; remark: listed apart in the source

“SYCP1 αN-end (101-206) (from UniProt Q15431 101-206) (domain or fragment)” was tested, and the stoichiometry N [1] was 4.

Work on “truncated SYCP1 αN-end (101-175) (from UniProt Q15431 101-175) (domain or fragment)” yielded a stoichiometry N [2] of 4.

“RecE-αN-tetramer (from UniProt Q15431 206-362)” showed a stoichiometry N (RecE-αN-tetramer) of 4.

B1: SYCP1 αN-tetramer (206-362) (domain or fragment)
chain: ETRQVYMDLNNNIEKMITAFEELRVQAENSRLEMHFKLKEDYEKIQHLEQEYKKEINDKEKQVSLLLIQITEKENKMKDLTFLLEESRDKVNQLEEKTKLQSENLKQSIEKQHHLTKELEDIKVSLQRSVSTQKALEEDLQIATKTICQLTEEKETQ
In the case of B1, the “stoichiometry N” value (SEC-MALS [3]) is reported as 4.

B2: SYCP1 αC-end (676-770) (domain or fragment)
chain: ENLLEEVEKAKVIADEAVKLQKEIDKRCQHKIAEMVALMEKHKHQYDKIIEERDSELGLYKSKEQEQSSLRASLEIELSNLKAELLSVKKQLEIE
For B2, the “stoichiometry N” value (crystal structure) was 4.

B3: SYCP1 αCore (101-783) (domain or fragment)
chain: GLSRVYSKLYKEAEKIKKWKVSTEAELRQKESKLQENRKIIEAQRKAIQELQFGNEKVSLKLEEGIQENKDLIKENNATRHLCNLLKETCARSAEKTKKYEYEREETRQVYMDLNNNIEKMITAFEELRVQAENSRLEMHFKLKEDYEKIQHLEQEYKKEINDKEKQVSLLLIQITEKENKMKDLTFLLEESRDKVNQLEEKTKLQSENLKQSIEKQHHLTKELEDIKVSLQRSVSTQKALEEDLQIATKTICQLTEEKETQMEESNKARAAHSFVVTEFETTVCSLEELLRTEQQRLEKNEDQLKILTMELQKKSSELEEMTKLTNNKEVELEELKKVLGEKETLLYENKQFEKIAEELKGTEQELIGLLQAREKEVHDLEIQLTAITTSEQYYSKEVKDLKTELENEKLKNTELTSHCNKLSLENKELTQETSDMTLELKNQQEDINNNKKQEERMLKQIENLQETETQLRNELEYVREELKQKRDEVKCKLDKSEENCNNLRKQVENKNKYIEELQQENKALKKKGTAESKQLNVYEIKVNKLELELESAKQKFGEITDTYQKEIEDKKISEENLLEEVEKAKVIADEAVKLQKEIDKRCQHKIAEMVALMEKHKHQYDKIIEERDSELGLYKSKEQEQSSLRASLEIELSNLKAELLSVKKQLEIEREEKEKLKREAKE
B3: binds (SEC-MALS [3]).

B4: SYCP1 αC-end extended (676-783) L679A I688A (domain or fragment)
chain: ENLAEEVEKAKVAADEAVKLQKEIDKRCQHKIAEMVALMEKHKHQYDKIIEERDSELGLYKSKEQEQSSLRASLEIELSNLKAELLSVKKQLEIEREEKEKLKREAKE
B4 was tested, and the “stoichiometry N” value (SEC-MALS [4]) was 2.

B5: SYCP1 αCore-ΔNtip (112-783) (domain or fragment)
chain: EAEKIKKWKVSTEAELRQKESKLQENRKIIEAQRKAIQELQFGNEKVSLKLEEGIQENKDLIKENNATRHLCNLLKETCARSAEKTKKYEYEREETRQVYMDLNNNIEKMITAFEELRVQAENSRLEMHFKLKEDYEKIQHLEQEYKKEINDKEKQVSLLLIQITEKENKMKDLTFLLEESRDKVNQLEEKTKLQSENLKQSIEKQHHLTKELEDIKVSLQRSVSTQKALEEDLQIATKTICQLTEEKETQMEESNKARAAHSFVVTEFETTVCSLEELLRTEQQRLEKNEDQLKILTMELQKKSSELEEMTKLTNNKEVELEELKKVLGEKETLLYENKQFEKIAEELKGTEQELIGLLQAREKEVHDLEIQLTAITTSEQYYSKEVKDLKTELENEKLKNTELTSHCNKLSLENKELTQETSDMTLELKNQQEDINNNKKQEERMLKQIENLQETETQLRNELEYVREELKQKRDEVKCKLDKSEENCNNLRKQVENKNKYIEELQQENKALKKKGTAESKQLNVYEIKVNKLELELESAKQKFGEITDTYQKEIEDKKISEENLLEEVEKAKVIADEAVKLQKEIDKRCQHKIAEMVALMEKHKHQYDKIIEERDSELGLYKSKEQEQSSLRASLEIELSNLKAELLSVKKQLEIEREEKEKLKREAKE
B5 was tested, and the “stoichiometry N” value (SEC-MALS [3]) was 4.

B6: GST-αC-dimer (domain or fragment)
chain: EKETQMEESNKARAAHSFVVTEFETTVCSLEELLRTEQQRLEKNEDQLKILTMELQKKSSELEEMTKLTNNKEVELEELKKVLGEKETLLYENKQFEKIAEELKGTEQELIGLLQAREKEVHDLEIQLTAITTSEQYYSKEVKDLKTELENEKLKNTELTSHCNKLSLENKELTQETSDMTLELKNQQEDINNNKKQEERMLKQIENLQETETQLRNELEYVREELKQKRDEVKCKLDKSEENCNNLRKQVENKNKYIEELQQENKALKKKGTAESKQLNVYEIKVNKLELELESAKQKFGEITDTYQKEIEDKKISEENLLEEVEKAKVIADEAVKLQKEIDKRCQHKIAEMVALMEKHKHQYDKIIEERDSELGLYKSKEQEQSSLRASLEIELSNLKAELLSVKKQLEIEREEKEKLKREAKE
For B6, the “stoichiometry N” value (SEC-MALS [3]) was 2.

B7: SYCP1 αC-dimer (358-783) (domain or fragment)
chain: B6 chain
B7 was tested, and the “stoichiometry N” value (SEC-MALS [3]) was 2.

B8: SYCP1 αN (101-362) (domain or fragment)
chain: GLSRVYSKLYKEAEKIKKWKVSTEAELRQKESKLQENRKIIEAQRKAIQELQFGNEKVSLKLEEGIQENKDLIKENNATRHLCNLLKETCARSAEKTKKYEYEREETRQVYMDLNNNIEKMITAFEELRVQAENSRLEMHFKLKEDYEKIQHLEQEYKKEINDKEKQVSLLLIQITEKENKMKDLTFLLEESRDKVNQLEEKTKLQSENLKQSIEKQHHLTKELEDIKVSLQRSVSTQKALEEDLQIATKTICQLTEEKETQ
B8: binds (SEC-MALS [3]).
